Bridge positions count the residues as written; N and C are the ends. Square brackets hold non-standard residues; d marks the D form. Bip = N[C@@H](Cc1ccc(-c2ccccc2)cc1)C(=O)O; 1Nal = N[C@@H](Cc1cccc2ccccc12)C(=O)O; 2Nal = N[C@@H](Cc1ccc2ccccc2c1)C(=O)O; d1Nal = N[C@H](Cc1cccc2ccccc12)C(=O)O; NMeR = CN[C@@H](CCCNC(=N)N)C(=O)O; Tic = O=C(O)[C@@H]1Cc2ccccc2CN1; β3hE = N[C@@H](CCC(=O)O)CC(=O)O; Cha = N[C@@H](CC1CCCCC1)C(=O)O; Cit = NC(=O)NCCC[C@H](N)C(=O)O; NMeK = CN[C@@H](CCCCN)C(=O)O; Pen = CC(C)(S)[C@H](N)C(=O)O; hLeu = CC(C)CC[C@H](N)C(=O)O; Dab = NCC[C@H](N)C(=O)O
These binders were tested against human α4β7 integrin on cells (human) (UniProt P13612) (assay: RPMI8866 adhesion to MAdCAM-1).

Binder	IC50
Ac-[Pen][NMeR]SDTL[Pen][1Nal][dR][dK]-NH2 (disulfide 1-7 (inferred); also: homodimer via DIG) [SEQ ID NO: 114]	> 100 nM
Ac-[Pen][NMeR]SDTY[Pen][2Nal][dE]-NH2 (disulfide 1-7; SMILES CC(=O)N[C@@H]1C(=O)N(C)[C@@H](CCCNC(=N)N)C(=O)N[C@@H](CO)C(=O)N[C@@H](CC(=O)O)C(=O)N[C@@H]([C@@H](C)O)C(=O)N[C@@H](Cc2ccc(O)cc2)C(=O)N[C@H](C(=O)N[C@@H](Cc2ccc3ccccc3c2)C(=O)N[C@H](CCC(=O)O)C(N)=O)C(C)(C)SSC1(C)C) [SEQ ID NO: 164]	> 1000 nM
Ac-[Pen][NMeR]SDTL[Pen][Tic][dE][dK]-NH2 (disulfide 1-7; also: dimer (monomer)2-DIG, DIG attachment place not given here) [SEQ ID NO: 80]	> 50 nM
Ac-[Pen][NMeR]SDTL[Pen][1Nal][dH][dK]-NH2 (disulfide 1-7 (inferred); also: homodimer via DIG) [SEQ ID NO: 112]	> 50 nM
Ac-[Pen][NMeR]SDTL[Pen][1Nal][dF][dK]-NH2 (disulfide 1-7; also: dimer via DIG, attachment site not given here) [SEQ ID NO: 111]	> 100 nM
Ac-[Pen][NMeR]SDTL[Pen][2Nal][dR][dK]-NH2 (disulfide 1-7 (inferred); also: homodimer via DIG) [SEQ ID NO: 120]	> 1000 nM
Ac-[Pen][NMeR]SDTF[Pen][2Nal][dE]-NH2 (disulfide 1-7; SMILES CC(=O)N[C@@H]1C(=O)N(C)[C@@H](CCCNC(=N)N)C(=O)N[C@@H](CO)C(=O)N[C@@H](CC(=O)O)C(=O)N[C@@H]([C@@H](C)O)C(=O)N[C@@H](Cc2ccccc2)C(=O)N[C@H](C(=O)N[C@@H](Cc2ccc3ccccc3c2)C(=O)N[C@H](CCC(=O)O)C(N)=O)C(C)(C)SSC1(C)C) [SEQ ID NO: 162]	> 1000 nM
Ac-[Pen][NMeR]SDTL[Pen][1Nal][Tic][dK]-NH2 (disulfide 1-7 (inferred); also: homodimer via DIG) [SEQ ID NO: 115]	> 100 nM
Ac-[Pen][NMeR]SDTL[Pen][2Nal][dY][dK]-NH2 (disulfide 1-7; also: dimer via DIG) [SEQ ID NO: 27]	> 25 nM
Ac-[Pen][NMeR]SDTL[Pen]W[Cit][dK]-NH2 (disulfide 1-7; also: dimer (monomer)2-DIG, DIG attachment place not given here) [SEQ ID NO: 84]	> 10 nM
Ac-[Pen][NMeR]SDTL[Pen][2Nal][Tic][dK]-NH2 (disulfide 1-7 (inferred); also: homodimer via DIG) [SEQ ID NO: 121]	> 100 nM
Ac-[Pen][NMeR]SDFL[Pen][2Nal][dE]-NH2 (disulfide 1-7; SMILES CC(=O)N[C@@H]1C(=O)N(C)[C@@H](CCCNC(=N)N)C(=O)N[C@@H](CO)C(=O)N[C@@H](CC(=O)O)C(=O)N[C@@H](Cc2ccccc2)C(=O)N[C@@H](CC(C)C)C(=O)N[C@H](C(=O)N[C@@H](Cc2ccc3ccccc3c2)C(=O)N[C@H](CCC(=O)O)C(N)=O)C(C)(C)SSC1(C)C) [SEQ ID NO: 157]	> 1000 nM
Ac-[Pen][NMeR]SDIL[Pen][2Nal][dE]-NH2 (disulfide 1-7; SMILES CC[C@H](C)[C@@H]1NC(=O)[C@H](CC(=O)O)NC(=O)[C@H](CO)NC(=O)[C@H](CCCNC(=N)N)N(C)C(=O)[C@@H](NC(C)=O)C(C)(C)SSC(C)(C)[C@@H](C(=O)N[C@@H](Cc2ccc3ccccc3c2)C(=O)N[C@H](CCC(=O)O)C(N)=O)NC(=O)[C@H](CC(C)C)NC1=O) [SEQ ID NO: 160]	> 1000 nM
Ac-[Pen][NMeR]SDTL[Pen][1Nal][dT][dK]-NH2 (disulfide 1-7 (inferred); also: homodimer via DIG) [SEQ ID NO: 116]	> 50 nM
Ac-[Pen][NMeR]SDLL[Pen][2Nal][dE]-NH2 (disulfide 1-7; SMILES CC(=O)N[C@@H]1C(=O)N(C)[C@@H](CCCNC(=N)N)C(=O)N[C@@H](CO)C(=O)N[C@@H](CC(=O)O)C(=O)N[C@@H](CC(C)C)C(=O)N[C@@H](CC(C)C)C(=O)N[C@H](C(=O)N[C@@H](Cc2ccc3ccccc3c2)C(=O)N[C@H](CCC(=O)O)C(N)=O)C(C)(C)SSC1(C)C) [SEQ ID NO: 159]	> 1000 nM
Ac-[Pen][NMeR]SDTL[Pen][2Nal]E-NH2 (disulfide 1-7; SMILES CC(=O)N[C@@H]1C(=O)N(C)[C@@H](CCCNC(=N)N)C(=O)N[C@@H](CO)C(=O)N[C@@H](CC(=O)O)C(=O)N[C@@H]([C@@H](C)O)C(=O)N[C@@H](CC(C)C)C(=O)N[C@H](C(=O)N[C@@H](Cc2ccc3ccccc3c2)C(=O)N[C@@H](CCC(=O)O)C(N)=O)C(C)(C)SSC1(C)C) [SEQ ID NO: 75]	> 50 nM
Ac-[Pen][NMeR]SDTL[Pen][Bip][dE][dK]-NH2 (disulfide 1-7; also: dimer via DIG, attachment site not given here) [SEQ ID NO: 108]	> 10 nM
Ac-[Pen][NMeR]SDTL[Pen][2Nal][dF][dK]-NH2 (disulfide 1-7 (inferred); also: homodimer via DIG) [SEQ ID NO: 117]	> 100 nM
Ac-[Pen][NMeR]SDTL[Pen][Bip]E[NMeK]-NH2 (disulfide 1-7 (inferred); also: homodimer via DIG) [SEQ ID NO: 136]	< 10 nM
Ac-[Pen][NMeR]SDTL[Pen][Bip][β3hE][dK]-NH2 (disulfide 1-7 (inferred); also: homodimer via DIG) [SEQ ID NO: 135]	< 10 nM

Further lines, results first:

IC50	Binder
> 1000 nM	Ac-[Pen][NMeR]SDTQ[Pen][2Nal][dE]-NH2 (disulfide 1-7; SMILES CC(=O)N[C@@H]1C(=O)N(C)[C@@H](CCCNC(=N)N)C(=O)N[C@@H](CO)C(=O)N[C@@H](CC(=O)O)C(=O)N[C@@H]([C@@H](C)O)C(=O)N[C@@H](CCC(N)=O)C(=O)N[C@H](C(=O)N[C@@H](Cc2ccc3ccccc3c2)C(=O)N[C@H](CCC(=O)O)C(N)=O)C(C)(C)SSC1(C)C) [SEQ ID NO: 163]
> 25 nM	Ac-[Pen][NMeR]SDTL[Pen][2Nal][dH][dK]-NH2 (disulfide 1-7 (inferred); also: homodimer via DIG) [SEQ ID NO: 118]
> 10 nM	Ac-[Pen][NMeR]SDTL[Pen][2Nal][dT][dK]-NH2 (disulfide 1-7 (inferred); also: dimer via DIG linker) [SEQ ID NO: 140]
> 500 nM	Ac-[Pen][NMeR]SDTL[Pen][2Nal][dL][dK]-NH2 (disulfide 1-7 (inferred); also: homodimer via DIG) [SEQ ID NO: 119]
< 10 nM	Ac-[Pen][NMeR]SDTL[Pen]WE[Dab]-NH2 (disulfide 1-7; also: dimer (monomer)2-DIG, DIG attachment place not given here) [SEQ ID NO: 97]
> 1000 nM	Ac-[Pen][NMeR]SD[Cha]L[Pen][2Nal][dE]-NH2 (disulfide 1-7; SMILES CC(=O)N[C@@H]1C(=O)N(C)[C@@H](CCCNC(=N)N)C(=O)N[C@@H](CO)C(=O)N[C@@H](CC(=O)O)C(=O)N[C@@H](CC2CCCCC2)C(=O)N[C@@H](CC(C)C)C(=O)N[C@H](C(=O)N[C@@H](Cc2ccc3ccccc3c2)C(=O)N[C@H](CCC(=O)O)C(N)=O)C(C)(C)SSC1(C)C) [SEQ ID NO: 158]
> 100 nM	Ac-[Pen][NMeR]SDTL[Pen]W[Tic][dK]-NH2 (disulfide 1-7; also: dimer via DIG, attachment site not given here) [SEQ ID NO: 109]
> 25 nM	Ac-[Pen][NMeR]SDTL[Pen][d1Nal]E[dK]-NH2 (disulfide 1-7; also: dimer via DIG) [SEQ ID NO: 34]
> 1000 nM	Ac-[Pen][NMeR]SD[hLeu]L[Pen][2Nal][dE]-NH2 (disulfide 1-7; SMILES CC(=O)N[C@@H]1C(=O)N(C)[C@@H](CCCNC(=N)N)C(=O)N[C@@H](CO)C(=O)N[C@@H](CC(=O)O)C(=O)N[C@@H](CCC(C)C)C(=O)N[C@@H](CC(C)C)C(=O)N[C@H](C(=O)N[C@@H](Cc2ccc3ccccc3c2)C(=O)N[C@H](CCC(=O)O)C(N)=O)C(C)(C)SSC1(C)C) [SEQ ID NO: 161]
> 100 nM	Ac-[Pen][NMeR]SDVL[Pen][2Nal][dE]-NH2 (disulfide 1-7 (inferred)) [SEQ ID NO: 156]
> 500 nM	Ac-[Pen][NMeR]SDTL[Pen][1Nal][dL][dK]-NH2 (disulfide 1-7 (inferred); also: homodimer via DIG) [SEQ ID NO: 113]

Source: patent US20180148477A1 (published 2018)
